Where a chain is given by its changes, count along the chain named. Where two headings read alike, the source gives them in different places.
Experiments:
[1] = target: T1, recombinant human CD25 his tagged (UniProt P01589 22-240); experiment: SPR (Biacore 2000)
T1 chain: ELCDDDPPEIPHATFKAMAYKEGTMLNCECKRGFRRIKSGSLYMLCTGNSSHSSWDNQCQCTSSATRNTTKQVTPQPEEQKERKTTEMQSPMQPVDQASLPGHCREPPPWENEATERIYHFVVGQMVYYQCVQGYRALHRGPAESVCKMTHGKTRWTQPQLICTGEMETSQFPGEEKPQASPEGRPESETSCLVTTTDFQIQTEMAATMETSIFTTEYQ

[2] = target: T1, recombinant human CD25 his tagged; experiment: SPR (Biacore 2000)
[3] = target: T1, recombinant human CD25 his tagged; experiment: SPR (Biacore 2000)
[4] = target: T1, recombinant human CD25 his tagged; experiment: SPR (Biacore 2000)
[5] = target: T2, recombinant human CD25 his tagged (human, UniProt P01589 22-240, limits assumed); experiment: Octet sequential binding, rhCD25 his tagged on Ni-NTA biosensors, first antibody
T2 construct: also called rhCD25 his tagged; rhCD25; not shown: his tag
T2 sequence: T1 chain

B1: Antibody 7 (antibody, V domains shown)
VH: QVQLQESGPGLVKPSETLSLTCTVSGFSLTSYGIQWVRQPPGKGLEWIGVIWAGGSTNYNSALMSRVTISKDNSKSQFSLKLSSVTAADTAVYYCARAYGYDGSWLAYWGQGTLVTVSS
VL: DIQMTQSPSSLSASVGDRVTITCRASSSVSYMHWYQQKPGKAPKPLIFATSNLASGVPSRFSGSGSGTDYTLTISSLQPEDFATYYCQQWSSNPPTFGGGTKLEIK
Work on B1 yielded a Kd [1] of 2.1 nM.

B2: Antibody 12 (antibody, V domains shown)
VH: QVQLVESGGGVVQPGGSLRLSCAVSGFSLTSYGIQWVRQAPGKGLEWVSVIWAGGSTNYNSALMSRFTISKDNSKSTLYLQMNSLRAEDTAVYYCARAYGYDGSWLAYWGQGTLVTVSS
VL: B1 VL with D1Q, M4L, A42S
Binder B2 has a Kd [2] of 6.9 nM.

B3: Antibody 4 (antibody, V domains shown)
VH: B1 VH with V37I, S76N
VL: B1 VL with D1Q, M4L, A42S
With B3 the Kd [3] was 1.1 nM.

B4: Antibody 8 (antibody, V domains shown)
VH: B1 VH
VL: B1 VL with D1Q, M4L, A42S
With B4 the Kd [1] was 1.7 nM.

B5: Antibody 2 (antibody, V domains shown)
VH: B1 VH with V37I, S76N
VL: QIVLTQSPATLSLSPGERATLSCRASSSVSYMHWYQQKPGQAPRPLIFATSNLASGIPARFSGSGSGTDYTLTISSLEPEDFAVYYCQQWSSNPPTFGGGTKLEIK
With B5 the Kd [4] was 4.8 nM.

B6: Antibody 3 (antibody, V domains shown)
VH: B1 VH with V37I, S76N
VL: B1 VL
Work on B6 yielded a Kd [4] of 0.3 nM.

B7: Antibody 1 (antibody, V domains shown)
VH: B1 VH with V37I, S76N
VL: B5 VL with Q1E, Y70F
In the case of B7, the Kd [4] is reported as 1.2 nM.

B8: Antibody 5 (antibody, V domains shown)
VH: B1 VH
VL: B5 VL with Q1E, Y70F
Work on B8 yielded a Kd [3] of 2.6 nM.

B9: Antibody 11 (antibody, V domains shown)
VH: B2 VH
VL: B1 VL
B9 gave a Kd [2] of 10.2 nM.

B10: Antibody 6 (antibody, V domains shown)
VH: B1 VH
VL: B5 VL
Binder B10 has a Kd [3] of 2.9 nM.

B11: Antibody 10 (antibody, human IgG1, V domains shown)
VH: B2 VH
VL: B5 VL
notes: also called Ab10; Antibody 10-hIgG1
In the case of B11, the binding result [5] is reported as “binds” and the Kd [2] is reported as 7.6 nM.

B12: Antibody 9 (antibody, V domains shown)
VH: B2 VH
VL: B5 VL with Q1E, Y70F
B12 gave a Kd [1] of 8.8 nM.
